Experiments:
Experiment in all cases: cell-based or functional assay
[1] = molecular target: HIV-1 Env of pseudovirus T255-34 (HIV-1)
[2] = molecular target: HIV-1 Env of pseudovirus P1981_C5_3 (HIV-1)
[3] = molecular target: HIV-1 Env of pseudovirus C4118.c09 (HIV-1)
[4] = molecular target: HIV-1 Env of pseudovirus 6540.v4.c1 (HIV-1)
[5] = molecular target: HIV-1 Env of pseudovirus 89-F1_2_25 (HIV-1)
[6] = molecular target: HIV-1 Env of pseudovirus R2184.c04 (HIV-1)
[7] = molecular target: HIV-1 Env of pseudovirus C1080.c03 (HIV-1)
[8] = molecular target: HIV-1 Env of pseudovirus 6480.v4.c25 (HIV-1)
[9] = molecular target: HIV-1 Env of pseudovirus 6041.v3.c23 (HIV-1)
[10] = molecular target: HIV-1 Env of pseudovirus 3301.v1.c24 (HIV-1)
[11] = molecular target: HIV-1 Env of pseudovirus BJOX028000.10.3 (HIV-1)
[12] = molecular target: HIV-1 Env of pseudovirus 235-47 (HIV-1)
[13] = molecular target: HIV-1 Env of pseudovirus BJOX010000.06.2 (HIV-1)
[14] = molecular target: HIV-1 Env of pseudovirus X1193_c1 (HIV-1)
[15] = molecular target: HIV-1 Env of pseudovirus 231966.c02 (HIV-1)
[16] = molecular target: HIV-1 Env of pseudovirus 6811.v7.c18 (HIV-1)
[17] = molecular target: HIV-1 Env of pseudovirus 3103.v3.c10 (HIV-1)
[18] = molecular target: HIV-1 Env of pseudovirus BJOX015000.11.5 (HIV-1)
[19] = molecular target: HIV-1 Env of pseudovirus BJOX025000.01.1 (HIV-1)
[20] = molecular target: HIV-1 Env of pseudovirus X2088_c9 (HIV-1)
[21] = molecular target: HIV-1 Env of pseudovirus X1632_S2_B10 (HIV-1)
[22] = molecular target: HIV-1 Env of pseudovirus R1166.c01 (HIV-1)
[23] = molecular target: HIV-1 Env of pseudovirus P0402_c2_11 (HIV-1)
[24] = molecular target: HIV-1 Env of pseudovirus 0815.v3.c3 (HIV-1)
[25] = molecular target: HIV-1 Env of pseudovirus 3817.v2.c59 (HIV-1)
[26] = molecular target: HIV-1 Env of pseudovirus X2131_C1_B5 (HIV-1)
[27] = molecular target: HIV-1 Env of pseudovirus 211-9 (HIV-1)
[28] = molecular target: HIV-1 Env of pseudovirus T251-18 (HIV-1)
[29] = molecular target: HIV-1 Env of pseudovirus BJOX009000.02.4 (HIV-1)
[30] = molecular target: HIV-1 Env of pseudovirus C3347.c11 (HIV-1)
[31] = molecular target: HIV-1 Env of pseudovirus R3265.c06 (HIV-1)

Substance: 10-1074 (antibody)
- IC50 neutralization (TZM.bl) [1]: > 50 µg/mL
- IC80 neutralization (TZM.bl) [1]: > 50 µg/mL
- IC50 neutralization (TZM.bl) [2]: 0.005 µg/mL
- IC80 neutralization (TZM.bl) [2]: 0.017 µg/mL
- IC50 neutralization (TZM.bl) [3]: > 50 µg/mL
- IC80 neutralization (TZM.bl) [3]: > 50 µg/mL
- IC50 neutralization (TZM.bl) [4]: > 50 µg/mL
- IC80 neutralization (TZM.bl) [4]: > 50 µg/mL
- IC50 neutralization (TZM.bl) [5]: > 50 µg/mL
- IC80 neutralization (TZM.bl) [5]: > 50 µg/mL
- IC50 neutralization (TZM.bl) [6]: > 50 µg/mL
- IC80 neutralization (TZM.bl) [6]: > 50 µg/mL
- IC50 neutralization (TZM.bl) [7]: > 50 µg/mL
- IC80 neutralization (TZM.bl) [7]: > 50 µg/mL
- IC50 neutralization (TZM.bl) [8]: 0.009 µg/mL
- IC80 neutralization (TZM.bl) [8]: 0.041 µg/mL
- IC50 neutralization (TZM.bl) [9]: > 50 µg/mL
- IC80 neutralization (TZM.bl) [9]: > 50 µg/mL
- IC50 neutralization (TZM.bl) [10]: 0.013 µg/mL
- IC80 neutralization (TZM.bl) [10]: 0.042 µg/mL
- IC50 neutralization (TZM.bl) [11]: > 50 µg/mL
- IC80 neutralization (TZM.bl) [11]: > 50 µg/mL
- IC50 neutralization (TZM.bl) [12]: 0.05 µg/mL
- IC80 neutralization (TZM.bl) [12]: 0.163 µg/mL
- IC50 neutralization (TZM.bl) [13]: > 50 µg/mL
- IC80 neutralization (TZM.bl) [13]: > 50 µg/mL
- IC50 neutralization (TZM.bl) [14]: 0.083 µg/mL
- IC80 neutralization (TZM.bl) [14]: 0.475 µg/mL
- IC50 neutralization (TZM.bl) [15]: > 50 µg/mL
- IC80 neutralization (TZM.bl) [15]: > 50 µg/mL
- IC50 neutralization (TZM.bl) [16]: 0.002 µg/mL
- IC80 neutralization (TZM.bl) [16]: 0.01 µg/mL
- IC50 neutralization (TZM.bl) [17]: 0.037 µg/mL
- IC80 neutralization (TZM.bl) [17]: 0.101 µg/mL
- IC50 neutralization (TZM.bl) [18]: > 50 µg/mL
- IC80 neutralization (TZM.bl) [18]: > 50 µg/mL
- IC50 neutralization (TZM.bl) [19]: > 50 µg/mL
- IC80 neutralization (TZM.bl) [19]: > 50 µg/mL
- IC50 neutralization (TZM.bl) [20]: 0.003 µg/mL
- IC80 neutralization (TZM.bl) [20]: 0.014 µg/mL
- IC50 neutralization (TZM.bl) [21]: > 50 µg/mL
- IC80 neutralization (TZM.bl) [21]: > 50 µg/mL
- IC50 neutralization (TZM.bl) [22]: > 50 µg/mL
- IC80 neutralization (TZM.bl) [22]: > 50 µg/mL
- IC50 neutralization (TZM.bl) [23]: 0.012 µg/mL
- IC80 neutralization (TZM.bl) [23]: 0.039 µg/mL
- IC50 neutralization (TZM.bl) [24]: 0.03 µg/mL
- IC80 neutralization (TZM.bl) [24]: 0.138 µg/mL
- IC50 neutralization (TZM.bl) [25]: 3.15 µg/mL
- IC80 neutralization (TZM.bl) [25]: 14.9 µg/mL
- IC50 neutralization (TZM.bl) [26]: 0.016 µg/mL
- IC80 neutralization (TZM.bl) [26]: 0.064 µg/mL
- IC50 neutralization (TZM.bl) [27]: 0.112 µg/mL
- IC80 neutralization (TZM.bl) [27]: 0.425 µg/mL
- IC50 neutralization (TZM.bl) [28]: 1.08 µg/mL
- IC80 neutralization (TZM.bl) [28]: 7.39 µg/mL
- IC50 neutralization (TZM.bl) [29]: > 50 µg/mL
- IC80 neutralization (TZM.bl) [29]: > 50 µg/mL
- IC50 neutralization (TZM.bl) [30]: > 50 µg/mL
- IC80 neutralization (TZM.bl) [30]: > 50 µg/mL

Substance: PG9 (antibody)
- IC50 neutralization (TZM.bl) [1]: 0.023 µg/mL
- IC80 neutralization (TZM.bl) [1]: 0.134 µg/mL
- IC50 neutralization (TZM.bl) [2]: 0.258 µg/mL
- IC80 neutralization (TZM.bl) [2]: 2.51 µg/mL
- IC50 neutralization (TZM.bl) [3]: 0.068 µg/mL
- IC80 neutralization (TZM.bl) [3]: 0.2 µg/mL
- IC50 neutralization (TZM.bl) [4]: 0.07 µg/mL
- IC80 neutralization (TZM.bl) [4]: 0.253 µg/mL
- IC50 neutralization (TZM.bl) [5]: 0.668 µg/mL
- IC80 neutralization (TZM.bl) [5]: 10.1 µg/mL
- IC50 neutralization (TZM.bl) [6]: 0.255 µg/mL
- IC80 neutralization (TZM.bl) [6]: 1.24 µg/mL
- IC50 neutralization (TZM.bl) [7]: 0.004 µg/mL
- IC80 neutralization (TZM.bl) [7]: 0.013 µg/mL
- IC50 neutralization (TZM.bl) [8]: > 50 µg/mL
- IC80 neutralization (TZM.bl) [8]: > 50 µg/mL
- IC50 neutralization (TZM.bl) [9]: 0.244 µg/mL
- IC80 neutralization (TZM.bl) [9]: 3.64 µg/mL
- IC50 neutralization (TZM.bl) [10]: 0.216 µg/mL
- IC80 neutralization (TZM.bl) [10]: 0.756 µg/mL
- IC50 neutralization (TZM.bl) [11]: 1.1 µg/mL
- IC80 neutralization (TZM.bl) [11]: 21.5 µg/mL
- IC50 neutralization (TZM.bl) [12]: 0.233 µg/mL
- IC80 neutralization (TZM.bl) [12]: 1.2 µg/mL
- IC50 neutralization (TZM.bl) [13]: 0.154 µg/mL
- IC80 neutralization (TZM.bl) [13]: 0.74 µg/mL
- IC50 neutralization (TZM.bl) [14]: 0.105 µg/mL
- IC80 neutralization (TZM.bl) [14]: 0.304 µg/mL
- IC50 neutralization (TZM.bl) [15]: 0.075 µg/mL
- IC80 neutralization (TZM.bl) [15]: 0.257 µg/mL
- IC50 neutralization (TZM.bl) [16]: > 50 µg/mL
- IC80 neutralization (TZM.bl) [16]: > 50 µg/mL
- IC50 neutralization (TZM.bl) [17]: 28 µg/mL
- IC80 neutralization (TZM.bl) [17]: > 50 µg/mL
- IC50 neutralization (TZM.bl) [18]: 0.322 µg/mL
- IC80 neutralization (TZM.bl) [18]: 1.49 µg/mL
- IC50 neutralization (TZM.bl) [19]: 0.144 µg/mL
- IC80 neutralization (TZM.bl) [19]: 0.335 µg/mL
- IC50 neutralization (TZM.bl) [20]: > 50 µg/mL
- IC80 neutralization (TZM.bl) [20]: > 50 µg/mL
- IC50 neutralization (TZM.bl) [21]: 0.107 µg/mL
- IC80 neutralization (TZM.bl) [21]: 0.934 µg/mL
- IC50 neutralization (TZM.bl) [22]: 0.736 µg/mL
- IC80 neutralization (TZM.bl) [22]: 2.88 µg/mL
- IC50 neutralization (TZM.bl) [23]: 0.296 µg/mL
- IC80 neutralization (TZM.bl) [23]: 2.37 µg/mL
- IC50 neutralization (TZM.bl) [24]: > 50 µg/mL
- IC80 neutralization (TZM.bl) [24]: > 50 µg/mL
- IC50 neutralization (TZM.bl) [25]: 0.02 µg/mL
- IC80 neutralization (TZM.bl) [25]: 0.062 µg/mL
- IC50 neutralization (TZM.bl) [31]: 0.163 µg/mL
- IC80 neutralization (TZM.bl) [31]: 0.535 µg/mL
- IC50 neutralization (TZM.bl) [26]: 0.084 µg/mL
- IC80 neutralization (TZM.bl) [26]: 0.286 µg/mL
- IC50 neutralization (TZM.bl) [27]: 0.049 µg/mL
- IC80 neutralization (TZM.bl) [27]: 0.243 µg/mL
- IC50 neutralization (TZM.bl) [28]: > 50 µg/mL
- IC80 neutralization (TZM.bl) [28]: > 50 µg/mL
- IC50 neutralization (TZM.bl) [29]: 1.73 µg/mL
- IC80 neutralization (TZM.bl) [29]: 8.21 µg/mL
- IC50 neutralization (TZM.bl) [30]: 0.032 µg/mL
- IC80 neutralization (TZM.bl) [30]: 0.113 µg/mL

Source: patent US20240117018A1
